The source of these data is patent US20040115622A1.

The labels stand for the following.
T1: HLA-DR molecule encoded by the allele DRB3*0101 (human)
T1 chain 1: not shown
T1 chain 2: not shown

T2: HLA-DR molecule encoded by the allele DRB1*1301 (human)
T2 chain 1: not shown
T2 chain 2: not shown

T3: HLA-DR molecule encoded by the allele DRB4*0101 (human)
T3 chain 1: not shown
T3 chain 2: not shown

The target in the first experiment is T1, HLA-DR molecule encoded by the allele …. The experiment is described as follows: competition ELISA vs biotinylated Lol 191-210. In general terms: In an ELISA, binding on a coated surface is turned into a signal by an enzyme label.
The IC50 is the concentration needed to halve the response being measured. Lower therefore signals inhibition by little substance. Regarding LEWRFDSRLAFHHVA (modifications not checked) [Nef13.2 peptide (positions 181-195 of the HIV-1 Nef protein, Bru strain), P03406 181-195], the IC50 is 60 nM.

The next experiment deals with HLA-DR molecule encoded by the allele DRB1*1501 (human). The experiment is described as follows: competition ELISA vs biotinylated A3 152-166.
Turning to GKWSKSSVVGWPTVR (modifications not checked) [Nef1.1 peptide (positions 3-17 of the HIV-1 Nef protein, Bru strain), P03406 3-17], the concentration for half-maximal inhibition (IC50) is 150 nM.
On the same count and under the same terms, in the case of GVRYPLTFGWCYKLVP (modifications not checked) [Nef9 peptide (positions 132-147 of the HIV-1 Nef protein, Bru strain), P03406 132-147] it was 1500 nM; in that of MGGKWSKSSVVGWPTVRERMRRAEPAADGVGAASRD (modifications not checked) [Nef1 peptide (positions 1-36 of the HIV-1 Nef protein, Bru strain), P03406 1-36], 40 nM.
Molecule EANKGENTSLLHPVSLHGMDDPEREVLEWRF (modifications not checked) [Nef11 peptide (positions 155-185 of the HIV-1 Nef protein, Bru strain), P03406 155-185] came in with an IC50 of 50 nM.
LIHSQRRQDILDLWI (modifications not checked) [Nef6 peptide (positions 100-114 of the HIV-1 Nef protein, Bru strain), P03406 100-114] registered an IC50 of 1750 nM.
Same read-out and setting: the value for SSVVGWPTVRERMRR (modifications not checked) [Nef1.2 peptide (positions 8-22 of the HIV-1 Nef protein, Bru strain), P03406 8-22] was 200 nM.

A further experiment addresses HLA-DR molecule encoded by the allele DRB1*1101 (human). The experiment is described as follows: competition ELISA vs biotinylated HA 306-318.
GKWSKSSVVGWPTVR (modifications not checked) [Nef1.1 peptide (positions 3-17 of the HIV-1 Nef protein, Bru strain), P03406 3-17] had an IC50 of 1750 nM.
The same measure, in the same setting: in the case of FHHVARELHPEYFKN (modifications not checked) [Nef13.6 peptide (positions 191-205 of the HIV-1 Nef protein, Bru strain), P03406 191-205] it was 550 nM; in that of MGGKWSKSSVVGWPTVRERMRRAEPAADGVGAASRD (modifications not checked) [Nef1 peptide (positions 1-36 of the HIV-1 Nef protein, Bru strain), P03406 1-36], 550 nM; in that of EANKGENTSLLHPVSLHGMDDPEREVLEWRF (modifications not checked) [Nef11 peptide (positions 155-185 of the HIV-1 Nef protein, Bru strain), P03406 155-185], 3000 nM.
On the same count and under the same terms, the value for LIHSQRRQDILDLWI (modifications not checked) [Nef6 peptide (positions 100-114 of the HIV-1 Nef protein, Bru strain), P03406 100-114] was 3000 nM.
In the case of SSVVGWPTVRERMRR (modifications not checked) [Nef1.2 peptide (positions 8-22 of the HIV-1 Nef protein, Bru strain), P03406 8-22], the IC50 worked out at 7500 nM.
The same measure, in the same setting: the value for LEWRFDSRLAFHHVA (modifications not checked) [Nef13.2 peptide (positions 181-195 of the HIV-1 Nef protein, Bru strain), P03406 181-195] was 18 nM.

For the next experiment, the target named is HLA-DR molecule encoded by the allele DRB1*0101 (human). The experiment is described as follows: competition ELISA vs biotinylated HA 306-318.
In turn, GKWSKSSVVGWPTVR (modifications not checked) [Nef1.1 peptide (positions 3-17 of the HIV-1 Nef protein, Bru strain), P03406 3-17] had an IC50 of 1250 nM.
The same measure, in the same setting: in the case of GVRYPLTFGWCYKLVP (modifications not checked) [Nef9 peptide (positions 132-147 of the HIV-1 Nef protein, Bru strain), P03406 132-147] it was 8.5 nM.
The same measure, in the same setting: in the case of MGGKWSKSSVVGWPTVRERMRRAEPAADGVGAASRD (modifications not checked) [Nef1 peptide (positions 1-36 of the HIV-1 Nef protein, Bru strain), P03406 1-36] it was 700 nM; in that of EANKGENTSLLHPVSLHGMDDPEREVLEWRF (modifications not checked) [Nef11 peptide (positions 155-185 of the HIV-1 Nef protein, Bru strain), P03406 155-185], 2000 nM.

For a further experiment, the target named is HLA-DR molecule encoded by the allele DRB1*0401 (human). The experiment can be described thus: competition ELISA vs biotinylated HA 306-318.
On to GKWSKSSVVGWPTVR (modifications not checked) [Nef1.1 peptide (positions 3-17 of the HIV-1 Nef protein, Bru strain), P03406 3-17], for which the IC50 came to 700 nM.
Molecule MGGKWSKSSVVGWPTVRERMRRAEPAADGVGAASRD (modifications not checked) [Nef1 peptide (positions 1-36 of the HIV-1 Nef protein, Bru strain), P03406 1-36] had an IC50 of 250 nM.

The target of the next experiment is HLA-DR molecule encoded by the allele DRB5*0101 (human). The experiment can be described thus: competition ELISA vs biotinylated HA 306-318.
On to FHHVARELHPEYFKN (modifications not checked) [Nef13.6 peptide (positions 191-205 of the HIV-1 Nef protein, Bru strain), P03406 191-205], for which the IC50 came out at 8000 nM.
On the same count and under the same terms, the value for GVRYPLTFGWCYKLVP (modifications not checked) [Nef9 peptide (positions 132-147 of the HIV-1 Nef protein, Bru strain), P03406 132-147] was 8000 nM; that for MGGKWSKSSVVGWPTVRERMRRAEPAADGVGAASRD (modifications not checked) [Nef1 peptide (positions 1-36 of the HIV-1 Nef protein, Bru strain), P03406 1-36] was 400 nM; that for EANKGENTSLLHPVSLHGMDDPEREVLEWRF (modifications not checked) [Nef11 peptide (positions 155-185 of the HIV-1 Nef protein, Bru strain), P03406 155-185] was 3000 nM.
Regarding LEWRFDSRLAFHHVA (modifications not checked) [Nef13.2 peptide (positions 181-195 of the HIV-1 Nef protein, Bru strain), P03406 181-195], the IC50 was found to be 6 nM.

The target of the next experiment is T2, HLA-DR molecule encoded by the allele …. The experiment can be described thus: competition ELISA vs biotinylated B1 21-36.
GKWSKSSVVGWPTVR (modifications not checked) [Nef1.1 peptide (positions 3-17 of the HIV-1 Nef protein, Bru strain), P03406 3-17] came in with an IC50 of 3000 nM.
Still for that read-out and setting: the value for FHHVARELHPEYFKN (modifications not checked) [Nef13.6 peptide (positions 191-205 of the HIV-1 Nef protein, Bru strain), P03406 191-205] was 3000 nM; that for MGGKWSKSSVVGWPTVRERMRRAEPAADGVGAASRD (modifications not checked) [Nef1 peptide (positions 1-36 of the HIV-1 Nef protein, Bru strain), P03406 1-36] was 325 nM; that for SSVVGWPTVRERMRR (modifications not checked) [Nef1.2 peptide (positions 8-22 of the HIV-1 Nef protein, Bru strain), P03406 8-22] was 700 nM.
LEWRFDSRLAFHHVA (modifications not checked) [Nef13.2 peptide (positions 181-195 of the HIV-1 Nef protein, Bru strain), P03406 181-195] returned an IC50 of 350 nM.

In another experiment the target is T3, HLA-DR molecule encoded by the allele …. The experiment is described as follows: competition ELISA vs biotinylated E2/E168.
MGGKWSKSSVVGWPTVRERMRRAEPAADGVGAASRD (modifications not checked) [Nef1 peptide (positions 1-36 of the HIV-1 Nef protein, Bru strain), P03406 1-36] had an IC50 of 2500 nM.
Still for that read-out and setting: the value for EANKGENTSLLHPVSLHGMDDPEREVLEWRF (modifications not checked) [Nef11 peptide (positions 155-185 of the HIV-1 Nef protein, Bru strain), P03406 155-185] was 450 nM; that for LIHSQRRQDILDLWI (modifications not checked) [Nef6 peptide (positions 100-114 of the HIV-1 Nef protein, Bru strain), P03406 100-114] was 1750 nM.

The target of a further experiment is HLA-DR molecule encoded by the allele DRB1*0301 (human). The experiment can be described thus: competition ELISA vs biotinylated MT 2-16.
FHHVARELHPEYFKN (modifications not checked) [Nef13.6 peptide (positions 191-205 of the HIV-1 Nef protein, Bru strain), P03406 191-205]: the IC50 worked out at 700 nM.
Same read-out and setting: the value for LEWRFDSRLAFHHVA (modifications not checked) [Nef13.2 peptide (positions 181-195 of the HIV-1 Nef protein, Bru strain), P03406 181-195] was 73 nM.

Another experiment addresses HLA-DR molecule encoded by the allele DRB1*0701 (human). The experiment can be described thus: competition ELISA vs biotinylated YKL.
Take GKWSKSSVVGWPTVR (modifications not checked) [Nef1.1 peptide (positions 3-17 of the HIV-1 Nef protein, Bru strain), P03406 3-17]: the IC50 was 48 nM.
Regarding FHHVARELHPEYFKN (modifications not checked) [Nef13.6 peptide (positions 191-205 of the HIV-1 Nef protein, Bru strain), P03406 191-205], the IC50 was 2500 nM.
Still for that read-out and setting: in the case of GVRYPLTFGWCYKLVP (modifications not checked) [Nef9 peptide (positions 132-147 of the HIV-1 Nef protein, Bru strain), P03406 132-147] it was 5500 nM; in that of MGGKWSKSSVVGWPTVRERMRRAEPAADGVGAASRD (modifications not checked) [Nef1 peptide (positions 1-36 of the HIV-1 Nef protein, Bru strain), P03406 1-36], 40 nM; in that of EANKGENTSLLHPVSLHGMDDPEREVLEWRF (modifications not checked) [Nef11 peptide (positions 155-185 of the HIV-1 Nef protein, Bru strain), P03406 155-185], 3750 nM.
In the case of LEWRFDSRLAFHHVA (modifications not checked) [Nef13.2 peptide (positions 181-195 of the HIV-1 Nef protein, Bru strain), P03406 181-195], the IC50 was 933 nM.
